Laboratory results taken from patent US20240272170A1 (QUANTUM SI, published 2024).
Where two headings read alike, the source gives them in different places. One block for each binder: values may come before it. Non-standard residues stand in square brackets, D forms with d. No end group written: not given here. *: point of attachment. FITC = O=C1OC2(c3ccc(O)cc3Oc3cc(O)ccc32)c2ccc(NC(=S)*)cc21; Lys(N3) = [N-]=[N+]=NCCCC[C@H](N)C(=O)O; pT = C[C@@H](OP(=O)(O)O)[C@H](N)C(=O)O; Met(O) = CS(=O)CC[C@H](N)C(=O)O; Cit = NC(=O)NCCC[C@H](N)C(=O)O

Legend:
[1] = biological target: T1, labeled peptide X…-FITC with N-terminal valine (FITC on the C-terminal Lys); experiment: fluorescence polarization; text of paragraph 337
T1 construct: also called VA peptide; valine peptide

[2] = biological target: T2, LA Peptide (fluorescence polarization); experiment: fluorescence polarization, FITC peptide titrated with protein
T2 peptide: LAKLDEESILKQK(FITC)

[3] = biological target: T3, IA Peptide (fluorescence polarization); experiment: as above
T3 peptide: IAKLDEESILKQK(FITC)

[4] = biological target: T4, AA Peptide (fluorescence polarization), AAKLDEESILKQ{LYS(FITC)}; experiment: as above
T4 peptide: AAKLDEESILKQK(FITC)

[5] = biological target: T5, MA peptide (Octet assay of PS557 variants); experiment: Octet (BLI), peptide on sensor, response after 200 s association
T5 construct: Peptide coated on the Octet sensor
Description: (§1) In the high-throughput assay, Octet sensors are coated with the peptide of interest and dipped in buffer containing the purified protein. An approximation of relative binding can be obtained by comparing the response after 200 seconds for each protein. Each protein has approximately the same molecular mass and is used at the same concentration, so ranking the proteins by response level in this assay gives an approximation of which proteins have improved binding. Studying the on and off-rate can also give insight into the mechanism of binding.

[6] = biological target: T6, IA peptide (Octet assay of PS557 variants); experiment: as above
T6 construct: Peptide coated on the Octet sensor
Description: as §1

[7] = biological target: T7, FA peptide (Octet assay of PS557 variants); experiment: as above
T7 construct: Peptide coated on the Octet sensor
Description: as §1

[8] = biological target: T8, WA peptide (Octet assay of PS557 variants); experiment: as above
T8 construct: Peptide coated on the Octet sensor
Description: as §1

[9] = biological target: T9, YA peptide (Octet assay of PS557 variants); experiment: as above
T9 construct: Peptide coated on the Octet sensor
Description: as §1

[10] = biological target: T10, AA peptide (Octet assay of PS557 variants); experiment: as above
T10 construct: Peptide coated on the Octet sensor
Description: (§2) In the high-throughput assay, Octet sensors are coated with the peptide of interest and dipped in buffer containing the purified protein. […] Studying the on and off-rate can also give insight into the mechanism of binding.

[11] = biological target: T11, VA peptide (Octet assay of PS557 variants); experiment: as above
T11 construct: Peptide coated on the Octet sensor
Description: as §2

[12] = biological target: T12, LA peptide (Octet assay of PS557 variants); experiment: as above
T12 construct: Peptide coated on the Octet sensor
Description: as §2

[13] = biological target: T5, MA peptide (Octet assay of PS557 …); experiment: as above; remark: listed apart in the source
Description: as §2

[14] = biological target: T6, IA peptide (Octet assay of PS557 …); experiment: as above; remark: listed apart in the source
Description: as §2

[15] = biological target: T7, FA peptide (Octet assay of PS557 …); experiment: as above; remark: listed apart in the source
Description: as §2

[16] = biological target: T13, … after cleavage to N-terminal leucine (LAFAYPDDD) (not fully specified (C-terminus); also: C-terminal azidolysine linked to DNA-streptavidin); experiment: single-molecule dynamic sequencing on chip
T13 construct: N-terminus exposed by aminopeptidases
T13 peptide: LAFAYPDDD

[17] = biological target: T14, … after cleavage to N-terminal leucine (LIFAYPDDD) (not fully specified (C-terminus); also: C-terminal azidolysine linked to DNA-streptavidin); experiment: single-molecule dynamic sequencing on chip
T14 construct: N-terminus exposed by aminopeptidases
T14 peptide: LIFAYPDDD

[18] = biological target: T15, … after cleavage to N-terminal leucine (LVFAYPDDD) (not fully specified (C-terminus); also: C-terminal azidolysine linked to DNA-streptavidin); experiment: single-molecule dynamic sequencing on chip
T15 construct: N-terminus exposed by aminopeptidases
T15 peptide: LVFAYPDDD

[19] = biological target: T16, … after cleavage to N-terminal leucine (LMFAYPDDD) (not fully specified (C-terminus); also: C-terminal azidolysine linked to DNA-streptavidin); experiment: single-molecule dynamic sequencing on chip
T16 construct: first population of traces, methionine not oxidized
T16 peptide: LMFAYPDDD

[20] = biological target: T17, RLMoFAYPDDD after cleavage to N-terminal leucine (LMoFAYPDDD) (not fully specified (C-terminus); printed as LMoFAYPDDD; also: C-terminal azidoLys linked to DNA-streptavidin); experiment: single-molecule dynamic sequencing on chip
T17 construct: second population of traces, methionine oxidized
T17 peptide: L[Met(O)]FAYPDDD

[21] = biological target: T18, synthetic peptide LRLAFAYPDDDK (not fully specified (residue 12)); experiment: single-molecule dynamic sequencing on chip
T18 construct: also called QP707
T18 peptide: LRLAFAYPDDDK-NH2

[22] = biological target: T19, synthetic peptide LCitLAFAYPDDDK; experiment: single-molecule dynamic sequencing on chip
T19 construct: also called QP789
T19 peptide: L[Cit]LAFAYPDDDK

[23] = biological target: T20, … after cleavage to N-terminal leucine (LTFIAYPDDD); experiment: single-molecule dynamic sequencing on chip
T20 construct: N-terminus exposed by aminopeptidases
T20 peptide: LTFIAYPDDD

[24] = biological target: T21, RLpTFIAYPDDD after cleavage to N-terminal leucine (LpTFIAYPDDD); experiment: single-molecule dynamic sequencing on chip
T21 construct: N-terminus exposed by aminopeptidases
T21 peptide: L[pT]FIAYPDDD[Lys(N3)]

[25] = biological target: T22, target peptide Met-Ala-Lys-Leu (MAKL); experiment: purified protein:peptide complex, X-ray crystallography
T22 peptide: MAKL

[26] = biological target: T23, target peptide Ala-Ala-Lys-Leu (AAKL); experiment: as above
T23 peptide: AAKL

[27] = biological target: T24, labeled peptide XAKLDEESILKQK-FITC with N-terminal methionine; experiment: fluorescence polarization titration, FITC peptide (FIG. 9D)
T24 construct: also called MA peptide
T24 peptide: MAKLDEESILKQK(FITC)
Experimental: (§3) Binding affinity was measured by polarization using a labeled peptide. The polarization response and total intensity measurements were carried out at 20° C. on a microplate fluorometer with 480 nm excitation and 530 nm emission. […] Multiple analyses were performed at increasing recognizer concentration at a fixed concentration of a target peptide to obtain a titration curve. An equilibrium polarization response at each concentration was plotted and fit to calculate the KD.

[28] = biological target: T1, labeled peptide X…-FITC with N-terminal …; experiment: fluorescence polarization titration, recognizer 0-4000 nM, labeled peptide fixed
Experimental: as §3

[29] = biological target: T25, labeled peptide X…-FITC with N-terminal leucine (FITC on the C-terminal Lys); experiment: fluorescence polarization titration, recognizer 0-5000 nM, labeled peptide fixed
T25 construct: the sentence itself names only the N-terminal residue; also called LA peptide
Experimental: as §3

[30] = biological target: T26, labeled peptide XAKLDEESILKQK-FITC with N-terminal isoleucine; experiment: as above
T26 construct: also called IA peptide
T26 peptide: IAKLDEESILKQK(FITC)
Experimental: as §3

[31] = biological target: T1, labeled peptide X…-FITC with N-terminal …; experiment: fluorescence polarization

B1: PS557 (other)
chain: MPTAASATESAIEDTPAPARPEVDGRTKPKRQPRYHVVLWNDDDHTYQYVVVMLQSLFGHPPERGYRLAKEVDTQGRVIVLTTTREHAELKRDQIHAFGYDRLLARSKGSMKASIEAEE
notes: tag of the purified construct not specified; also called wild-type protein; WT
- Kd [1]: 1170 nM

B2: PS557 (other)
chain: MPTAASATESAIEDTPAPARPEVDGRTKPKRQPRYHVVLWNDDDHTYQYVVVMLQSLFGHPPERGYRLAKEVDTQGRVIVLTTTREHAELKRDQIHAFGYDRLLARSKGSMKASIEAEE
notes: Natural ClpS parent protein; also called WT; wild-type protein
- Kd [2]: 52 nM
- Kd [3]: 289 nM
- Kd [4]: 10000 nM
- Octet response [5]: 1.68 nm
- Octet response [6]: 8.79 nm
- Octet response [7]: 0.0096 nm
- Octet response [8]: 0.0049 nm
- Octet response [9]: 0.0431 nm
- Octet response [10]: 0.612 nm
- Octet response [11]: 4.8 nm
- Octet response [12]: 7.16 nm
- Octet response [13]: 1.95 nm
- Octet response [14]: 7.2 nm
- Octet response [15]: 0.634 nm

Second part, the binder after the results:

- median pulse duration (PD) [16]: 1.29 s
- median pulse duration (PD) [17]: 2.22 s
- median pulse duration (PD) [18]: 4.21 s
- median pulse duration (PD) [19]: 0.86 s
- median pulse duration (PD) [20]: 0.35 s
- median pulse duration (PD) [21]: 0.43 s
- median pulse duration (PD) [22]: 0.78 s
- RS mean pulse duration (PD) [23]: 1.2 s
- RS mean pulse duration (PD) [24]: 0.3 s
- binding result [25]: binds
- binding result [26]: binds
- Kd [27]: 947 nM
- Kd [28]: 144 nM
- Kd [29]: 55 nM
- Kd [30]: 68 nM
B3: PS961 (designed binder)
chain: MPTAASATESAIEDTPAPARPEVDGRTKPKRQPRYHVVLWDDDDHTYQYVVVMLRSLFGHPPSRGYRMAKEMDTQGRVIVLTTTREHAELKRDQIHAFGRDRLLARSKGSMKASIEAEE
notes: PS557 with N41D, Q55R, E63S, L68M, V72M, Y100R; His/biotinylation tag of the assay construct is not specified; also called Planctomycetes ClpS variant

- fold improvement of binding against the wild-type protein PS557 [31]: 5 fold
B4: PS824 (designed binder)
chain: MPTAASATESAFEDTPAPARPEVDGRTKPKRQPRYHVVLWDDDDHTYQYVVVMLRSLFGHPPERGYRLAKEMDTQGRVIVLTTTREHAELKRDQIHAFGYDRLLARSKGSMKASIEAEE
notes: PS557 with I12F, N41D, Q55R, V72M
